Assays:
Aβ40 = details: decreased lag phase; cited from earlier work
Excerpt: Almost all types of cells produce amyloid beta (Aβ), a peptide well recognized for its role in the development and progression of different stages of Alzheimer's disease (AD). The Aβ peptide is ~ 4 kDa and derived from the sequential processing of the higher molecular weight amyloid precursor protein by two membrane‐bound endoproteases, β‐ and γ‐secretase. Different C‐terminal Aβ heterogeneity results from processing by γ‐secretase, where Aβ40 represents the most abundant isoform (~ 90%) as compared to Aβ42 (~ 10%). Self‐assembled Aβ40/42 peptides into amyloid fib ... || Humanin (HN) is a secreted 21‐ to 24‐amino acid mitochondrial‐derived peptide. Certain amino acid residues in HN have been identified to be involved in different functions, including binding to Aβ [55, 56]. […] HN was identified previously as a binding partner of Aβ, likely modulating its aggregation pathways and counteracting its deleterious effects. […] The specific epitopes at the binding interface between HN and Aβ40 were identified, by proteolytic epitope excision and extraction in addition to affinity–mass spectrometric data analysis, to be HN (5–15) and Aβ (17–28). […] Inhibiting the 17–28 region of Aβ reduced aggregation of the neurotoxic amyloid fibrils and related cytotoxicity in SH‐SY5Y, a human neuroblastoma cell ... || (+ 1 further places)

[1] = tested on: Aβ in A549 cell-conditioned media; test: ELISA, oligomer versus total Aβ in A549 cell-conditioned media; type: cell-based, human; details: Fig. 8A
Experimental: Aβ ELISAs were carried out according to previous protocols for determining the oligomeric and monomeric concentrations of Aβ and as we recently reported. Briefly, total Aβ (monomers + oligomers) was measured by two‐site binding ELISAs using the capture 6E10 monoclonal antibody and 4G8‐conjugated biotin as the detection antibody, which recognizes a distinct epitope, then quantitated using streptavidin‐HRP.
Using the same samples, oligomerized Aβ was measured by a single‐site ELISA in which antibodies targeting the same primary sequence epitope were used for both capture (4G8) and detection (4G8‐biotin). Only oligomers are detected with this approach since the 4G8‐biotin antibody cannot bind to the captured monomer because the epitope is blocked by the 4G8 capture antibody. […]
Conditioned media were immunodepleted (ID) according to the methods previously described and our recently published report. […] The ID media were then carefully removed and analyzed for the presence of the target protein or peptide by ELISA. The same amount of protein (3 µL of 600 µg·mL^−1 total protein) of each sample was analyzed in the experiments. […]
Both epitopes recognized by the 6E10 and 4G8 antibodies have been previously shown to be exposed in Aβ aggregates. […] Fold change relative to controls using anti‐6E10 or anti‐4G8 antibodies incubated with 300 μL of the medium not incubated with cells was calculated. […]

B1: acetylcholinesterase (protein)
chain: EGREDAELLVTVRGGRLRGIRLKTPGGPVSAFLGIPFAEPPMGPRRFLPPEPKQPWSGVVDATTFQSVCYQYVDTLYPGFEGTEMWNPNRELSEDCLYLNVWTPYPRPTSPTPVLVWIYGGGFYSGASSLDVYDGRFLVQAERTVLVSMNYRVGAFGFLALPGSREAPGNVGLLDQRLALQWVQENVAAFGGDPTSVTLFGESAGAASVGMHLLSPPSRGLFHRAVLQSGAPNGPWATVGMGEARRRATQLAHLVGCPPGGTGGNDTELVACLRTRPAQVLVNHEWHVLPQESVFRFSFVPVVDGDFLSDTPEALINAGDFHGLQVLVGVVKDEGSYFLVYGAPGFSKDNESLISRAEFLAGVRVGVPQVSDLAAEAVVLHYTDWLHPEDPARLREALSDVVGDHNVVCPVAQLAGRLAAQGARVYAYVFEHRASTLSWPLWMGVPHGYEIEFIFGIPLDPSRNYTAEEKIFAQRLMRYWANFARTGDPNEPRDPKAPQWPPYTAGAQQYVSLDLRPLEVRRGLRAQACAFWNRFLPKLLSATDTLDEAERQWKAEFHRWSSYMVHWKNQFDHYSKQDRCSDL
effect on Aβ40 aggregation (Aβ40): significantly accelerated the aggregation
oligomer, % of total Aβ remaining after AChE ID ([1]; AChE-immunodepleted A549 media (non-depleted ~ 63%)): ~ 47%
total Aβ remaining after AChE ID ([1]; AChE-immunodepleted A549 media): ~ 57%

Reference: publication PMC7714071, “Interaction of amyloid beta with humanin and acetylcholinesterase is modulated by ATP” (FEBS Open Bio, 2020)
